Patent US7834144B2 (priority 2005, dated 2010)
Read-outs that look alike come from different tables or passages of the source. Where no end group is shown, it is not given here. [ ]: non-standard residue; d: D form. Nab = not defined here; Nbn = not defined here

Tests used:
PrPc = PrPc (Homo sapiens, UniProt P04156); settings: Table 15
PrP^Sc [1] = molecular target: T1, PrP^Sc (Homo sapiens, UniProt P04156); settings: Table 16
PrP^Sc [2] = molecular target: T1, PrP^Sc
PrP^Sc [3] = molecular target: T1, PrP^Sc; settings: Table 15
[4] = H3PO4 (50 μl) 0.00007M, pH 4, NaOH (25 μl) 0.0031N
[5] = H3PO4 (50 μl) 0.00075M, pH 3, NaOH (25 μl) 0.031N
[6] = H3PO4 (50 μl) 0.12M, pH 2, NaOH (25 μl) 0.31N
[7] = H3PO4 (50 μl) 0.5M, pH 1, NaOH (25 μl) 3.1N
[8] = NaOH (50 μl) 0.0001M, pH 10, NaH2PO4 (20 μl) 0.0003M
[9] = NaOH (50 μl) 0.001M, pH 11, NaH2PO4 (20 μl) 0.003M
[10] = NaOH (50 μl) 0.1M, pH 12, NaH2PO4 (20 μl) 0.03M
[11] = NaOH (50 μl) 0.1M, pH 13, NaH2PO4 (20 μl) 0.3M

Peptoid Reagent XIIb: peptoid reagent comprising SEQ ID NO: 240, Nab-Nab-Nab-Nbn-Nab-Nbn, covalently bound to magnetic beads ([Nab][Nab][Nab][Nbn][Nab][Nbn]; reading uncertain; also: covalently bound to magnetic beads, printed as Nab-Nab-Nab-Nbn-Nab-Nbn)
AVE Plasma (PrPc; [4]): 26.8 | AVE Plasma (PrPc; [5]): 25.8 | AVE Plasma (PrPc; [6]): 92.7 | AVE Plasma (PrPc; [7]): 30.4 | AVE Plasma (PrPc; [8]): 197.6 | AVE Plasma (PrPc; [9]): 14.6 | AVE Plasma (PrPc; [10]): 16.1 | AVE Plasma (PrPc; [11]): 15.1 | AVE vCJD + Plasma (PrP^Sc [1]; 50 μl GdnSCN 3M, pH 5.9, 50 μl NaHCO3, final pH 8.5): 60.5 | AVE vCJD + Plasma (PrP^Sc [1]; 100 μl TBST, pH 7.5): 2.2 | S/N (PrP^Sc [1]; 100 μl TBST, pH 7.5): 1 | S/N (PrP^Sc [1]; H3PO4 0.00007M, pH 4): 1 | S/N (PrP^Sc [1]; H3PO4 0.00075M, pH 3): 1 | S/N (PrP^Sc [1]; H3PO4 0.12M, pH 2): 2 | S/N (PrP^Sc [1]; H3PO4 0.5M, pH 1): 5 | AVE vCJD + Plasma (PrP^Sc [1]; [4]): 7.6 | AVE vCJD + Plasma (PrP^Sc [1]; [5]): 21.8 | AVE vCJD + Plasma (PrP^Sc [1]; [6]): 14.6 | AVE vCJD + Plasma (PrP^Sc [1]; [7]): 57.1 | S/N (PrP^Sc [1]; NaOH 0.0001M, pH 10): 1 | S/N (PrP^Sc [1]; NaOH 0.001M, pH 11): 2 | S/N (PrP^Sc [1]; NaOH 0.1M, pH 12): 1 | S/N (PrP^Sc [1]; NaOH 0.1M, pH 13): 7 | AVE vCJD + Plasma (PrP^Sc [1]; [8]): 2.8 | AVE vCJD + Plasma (PrP^Sc [1]; [9]): 8.8 | AVE vCJD + Plasma (PrP^Sc [1]; [10]): 7.3 | AVE vCJD + Plasma (PrP^Sc [1]; [11]): 36.9 | Avg LU, 3F4 Plate (PrP^Sc [2]; vCJD 0 nL BH/asy (background)): 4.55 LU | Avg LU, C17 Plate (PrP^Sc [2]; vCJD 0 nL BH/asy (background)): 45.56 LU | S/N, 3F4 Plate (PrP^Sc [2]; vCJD 0 nL BH/asy (background)): 1.0 | S/N, C17 Plate (PrP^Sc [2]; vCJD 0 nL BH/asy (background)): 1.0 | Avg LU, 3F4 Plate (PrP^Sc [2]; vCJD 1 nL BH/asy): 8.90 LU | Avg LU, C17 Plate (PrP^Sc [2]; vCJD 1 nL BH/asy): 50.75 LU | S/N, 3F4 Plate (PrP^Sc [2]; vCJD 1 nL BH/asy): 2.0 | S/N, C17 Plate (PrP^Sc [2]; vCJD 1 nL BH/asy): 1.1 | Avg LU, 3F4 Plate (PrP^Sc [2]; vCJD 5 nL BH/asy): 19.34 LU | Avg LU, C17 Plate (PrP^Sc [2]; vCJD 5 nL BH/asy): 74.71 LU | S/N, 3F4 Plate (PrP^Sc [2]; vCJD 5 nL BH/asy): 4.3 | S/N, C17 Plate (PrP^Sc [2]; vCJD 5 nL BH/asy): 1.6 | S/N, 3F4 Plate (PrP^Sc [2]; vCJD 10 nL BH/asy): 13.2 | S/N, C17 Plate (PrP^Sc [2]; vCJD 10 nL BH/asy): 2.7 | Avg LU, 3F4 Plate (PrP^Sc [2]; vCJD 10 nL BH/asy, 3F4 capture, C2-AP detection): 60.07 LU | Avg LU, C17 Plate (PrP^Sc [2]; vCJD 10 nL BH/asy, C17 capture, C2-AP detection): 124.18 LU | S/N (PrP^Sc [3]; 15 μl GdnSCN 3M, pH 5.9): 11 | AVE vCJD + Plasma (PrP^Sc [3]; 15 μl GdnSCN 3M, pH 5.9, 210 μl H20, final pH 6.0): 430.4 | AVE vCJD + Plasma (PrP^Sc [3]; 70 μl TBST, pH 7.5): 25.5 | S/N (PrP^Sc [3]; 70 μl TBST, pH 7.5): 2 | S/N (PrP^Sc [3]; H3PO4 0.00007M, pH 4): 1 | S/N (PrP^Sc [3]; H3PO4 0.00075M, pH 3): 1 | S/N (PrP^Sc [3]; H3PO4 0.12M, pH 2): 1 | S/N (PrP^Sc [3]; H3PO4 0.5M, pH 1): 9 | AVE vCJD + Plasma (PrP^Sc [3]; [4]): 27.0 | AVE vCJD + Plasma (PrP^Sc [3]; [5]): 26.6 | AVE vCJD + Plasma (PrP^Sc [3]; [6]): 122.5 | AVE vCJD + Plasma (PrP^Sc [3]; [7]): 264.0 | S/N (PrP^Sc [3]; NaOH 0.0001M, pH 10): 0 | S/N (PrP^Sc [3]; NaOH 0.001M, pH 11): 1 | S/N (PrP^Sc [3]; NaOH 0.1M, pH 12): 5 | S/N (PrP^Sc [3]; NaOH 0.1M, pH 13): 30 | AVE vCJD + Plasma (PrP^Sc [3]; [8]): 34.8 | AVE vCJD + Plasma (PrP^Sc [3]; [9]): 11.8 | AVE vCJD + Plasma (PrP^Sc [3]; [10]): 76.1 | AVE vCJD + Plasma (PrP^Sc [3]; [11]): 458.1
